Primed or numbered codes have the meaning given here. The star is where a group is joined. dPEG8″ = dPEG8: discrete polyethylene glycol-8 linker (between N-terminal biotin and the peptide); dPEG8 = discrete polyethylene glycol-8 linker (long chain); Biotin = O=C1N[C@H]2[C@H](CS[C@H]2CCCCC(=O)*)N1

For orientation: Kd means the equilibrium constant for the complex coming apart. As a reminder, the koff is a measure of how fast the partners let go of each other. A word on the kon: it is a measure of how fast the partners come together.

Test [1] deals with T1, Recombinant soluble human CD138 extracellular domain (analyte in SPR) (human, UniProt P18827 23-254).
T1 construct: extracellular domain; also called recombinant CD138 (the antigen)
T1 sequence (looked up): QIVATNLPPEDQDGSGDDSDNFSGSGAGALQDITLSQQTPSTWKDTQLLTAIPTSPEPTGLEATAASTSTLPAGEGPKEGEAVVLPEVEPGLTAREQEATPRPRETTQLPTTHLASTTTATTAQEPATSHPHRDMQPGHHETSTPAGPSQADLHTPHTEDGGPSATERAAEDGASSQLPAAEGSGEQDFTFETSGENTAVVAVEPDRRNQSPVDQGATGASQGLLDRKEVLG
Kind of test: SPR (Carterra LSA): antibody captured by anti-human IgG, CD138 as analyte, pH 7.4, 1:1 fit. The text has this:
This method as described, immobilizes the target (recombinant CD138) through biotinylation-streptavidin capture. Such a method may, in principle, lead to biases in binding due to either chemical modification of the capture ligand and/or avidity effects due to immobilization of this ligand on the biosensor. Moreover, this method depends on diffusion-based principles of dissociation leading to non-equilibrium binding states. Surface plasmon resonance is an orthogonal, commonly used method for determining binding kinetics and deriving affinity values based on these parameters. In this method, antibodies were directly coupled to the sensor chip and probed with several concentrations of recombinant CD138 (the antigen) varying from 100 nM to 41 nM. This evaluation was completed under two different pH conditions, i.e., pH 6.0 and pH […].
Antibody-CD138 binding was evaluated on a Carterra LSA high throughput SPR instrument. Binding experiments were carried out using binding buffer comprising 100 mM sodium phosphate, 150 mM NaCl and 0.05% Tween-20 buffer. Buffers were adjusted to target pH of 7.4 and 6.0, by use of sodium hydroxide or HCL, respectively. All steps were also carried out independently at these respective buffer pHs. Antibodies were captured on the SPR (CMDP) chip using an anti-human IgG covalently coupled to the CMDP chip based on standard protocols, as described by the instrument manufacturer, and to create a uniform lawn on the chip surface at a target 25 nM anti-CD138 antibody concentration. Binding to CD138 was achieved by uniformly passing binding analyte with increasing concentrations of CD138 (41 nM-100 nM) for 15 minutes and allowing dissociation for 20 minutes. Analyte was flowed over the chip at a rate of 2 milliliters/minute. Raw binding data were processed using kinetics data analysis software also provided by the manufacturer (Carterra) following as 2X background subtraction that used the first six injections of buffer blanks and the internal machine reference controls. Kinetic data was analysed using a global fit and assuming a 1:1 binding interaction. Further analysis of individual binding curves (sensorgrams) with best fits were used to refine the calculation of kinetic parameters.

The target in another test is T2, Peptide 6 (human, N-terminal biotin through a long chain (dPEG8) linker (Biot-LC-); C-terminal -OH).
T2 construct: Chemically synthesized human CD138 peptide, 41 residues; also called Pep6
T2 peptide: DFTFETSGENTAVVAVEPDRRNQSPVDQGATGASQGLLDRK
Kind of test: BLI (Octet): biotinylated peptide (50 nM) loaded on streptavidin SA biosensors, mAb 4320 in solution, 300 s association then dissociation, PBS pH 7.4 with 0.02% Tween-20. In general terms: Biolayer interferometry detects binding as a change in optical thickness at a sensor tip.

The next test deals with T3, Peptide 6F (human).
T3 construct: Chemically synthesized human CD138 peptide, 15 residues
T3 peptide: {Biotin-dPEG8″}-ENTAVVAVEPDRRNQ-OH
Described as above.

Another test addresses T4, Peptide 138-6-1 (human).
T4 construct: Chemically synthesized human CD138 peptide, 8 residues
T4 peptide: {Biotin-dPEG8}-VVAVEPDR-OH
The description is as above.

A further test deals with T5, Peptide 2A (human, N-terminal biotin through a long chain (dPEG8) linker (Biot-LC-); C-terminal -OH).
T5 construct: Chemically synthesized human CD138 peptide, 34 residues; also called Pep2a
T5 peptide: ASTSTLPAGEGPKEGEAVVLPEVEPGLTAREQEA
The test is described as above.

For a further test, the target named is T6, Peptide 2C (human, N-terminal biotin through a long chain (dPEG8) linker (Biot-LC-); C-terminal -OH).
T6 construct: Chemically synthesized human CD138 peptide, 20 residues
T6 peptide: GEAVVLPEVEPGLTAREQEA
The test is described as above.

The next test addresses T7, Peptide 6B (human, N-terminal biotin through a long chain (dPEG8) linker (Biot-LC-); C-terminal -OH).
T7 construct: Chemically synthesized human CD138 peptide, 33 residues
T7 peptide: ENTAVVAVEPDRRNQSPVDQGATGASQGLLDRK
Described as above.

In the next test the target is T8, Peptide 138-2-1 (human).
T8 construct: Chemically synthesized human CD138 peptide, 8 residues
T8 peptide: {Biotin-dPEG8}-VLPEVEPG-OH
Nature of the test: BLI (Octet): biotinylated peptide (50 nM) loaded on streptavidin SA biosensors, mAb 4320 in solution, PBS pH 7.4 with 0.02% Tween-20.

The target in the next test is T9, Peptide 138-2-2 (human).
T9 construct: Chemically synthesized human CD138 peptide, 7 residues
T9 peptide: {Biotin-dPEG8}-LPEVEPG-OH
Described as above.

Another test has as its target T10, Peptide 138-2-3 (human).
T10 construct: Chemically synthesized human CD138 peptide, 8 residues
T10 peptide: {Biotin-dPEG8}-PEVEPGLT-OH
The test is described as above.

A further test deals with T11, Peptide 2D (human).
T11 construct: Chemically synthesized human CD138 peptide, 15 residues
T11 peptide: {Biotin-dPEG8″}-GEAVVLPEVEPGLTA-OH
Nature of the test: BLI (Octet): biotinylated peptide (50 nM) on streptavidin sensors, mAb 4320 in solution, PBS pH 7.4; qualitative score.

B1: mAb 4320 (parental humanized anti-CD138 antibody) (antibody, human IgG1, kappa, V domains shown)
VH: QVQLVQSGAEVKKPGASVKVSCKASGYSFSSYYMHWVRQAPGQGLEWMGTIHPSDSTTNYNQKFQGRVTMTVDTSTRTAYMELSSLRSEDTAVYYCANFVYWGQGTTVTVSS
VL: DIVMTQTPLSLSVTPGQPASISCKSSKSLLYKDGKTYLNWFLQKPGQSPQLLIYVVSTRASGVPDRFSGSGSGTDFTLKISRVEAEDVGVYYCQQLVEYPYTFGQGTKLEIKR
notes: Full-length IgG; heavy constant region human gamma 1 (m3 allotype), light chain kappa constant*01
In the case of B1, the Kd in test [1] was found to be 0.2 nM. Further, in test [1], the koff was 8.5e-05 s⁻¹. For the same molecule, the kon in test [1] came to 370000 M⁻¹ s⁻¹. For the same molecule, the binding result in the test with Peptide 6, with Peptide 6F, with Peptide 138-6-1, with Peptide 2A, with Peptide 2C and in the test with Peptide 6B was “binds” in each case. The binding result was “no binding” in the test with Peptide 138-2-1, “no binding” with Peptide 138-2-2, “no binding” with Peptide 138-2-3 and “binds” with Peptide 2D.

These data come from patent US20230348614A1 (VISTERRA, published 2023).
